From US20190263876A1 (published 2019)
Read-outs that look alike come from different tables or passages of the source.

Columns and labels:
Activin A [1] = target: T1, Activin A (UniProt P08476); assay: cell-based or functional assay
T1 sequence (looked up): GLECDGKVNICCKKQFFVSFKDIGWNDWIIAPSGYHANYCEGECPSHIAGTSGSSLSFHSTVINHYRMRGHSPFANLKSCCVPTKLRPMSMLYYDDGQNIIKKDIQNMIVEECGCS

GDF11 [2] = target: T2, GDF11 (UniProt O95390 299-407); assay: cell-based or functional assay
T2 construct: also called Growth and Differentiation Factor-11; BMP11
T2 sequence (looked up): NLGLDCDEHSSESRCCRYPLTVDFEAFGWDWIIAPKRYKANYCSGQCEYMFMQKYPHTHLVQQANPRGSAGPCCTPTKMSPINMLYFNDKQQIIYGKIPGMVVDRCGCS

Activin A [3] = target: T1, Activin A; assay: cell-based or functional assay; remark: listed apart in the source
GDF11 [4] = target: T2, GDF11; assay: cell-based or functional assay; remark: listed apart in the source
GDF11 [5] = target: T2, GDF11; assay: BiaCore; ligand coupled to the device, receptor flowed

B1: ActRIIB(24-131)-hFc (Fc fusion, not shown: a dimerising Fc or GST)
chain: AETRECIYYNANWELERTNQSGLERCEGEQDKRLHCYASWRNSSGTIELVKKGCWLDDFNCYDRQECVATEENPQVYFCCCEGNFCNERFTHLPEAGGPEVTYEPPPT
Q: Which IC50 (ng/mL), Activin, reporter assay, conditioned media (Activin A [1]) does the source give for B1 here?
A: 105 ng/mL

Q: What about the IC50 (ng/mL), GDF-11, reporter assay, conditioned media (GDF11 [2]) of the same binder?
A: 69 ng/mL

B2: ActRIIB-Fc A64 20-134 (Fc fusion, not shown: a dimerising Fc or GST)
chain: GRGEAETRECIYYNANWELERTNQSGLERCEGEQDKRLHCYASWANSSGTIELVKKGCWLDDFNCYDRQECVATEENPQVYFCCCEGNFCNERFTHLPEAGGPEVTYEPPPTAPT
Q: Which Activin Inhibition Activity, cell-based assay (KI) (Activin A [3]) does the source give for B2 here?
A: 1000 nM

Q: And the GDF11 Inhibition Activity, cell-based assay (KI) (GDF11 [4])?
A: 1000 nM

B3: ActRIIB(20-132)-hFc (Fc fusion, not shown: a dimerising Fc or GST)
chain: GRGEAETRECIYYNANWELERTNQSGLERCEGEQDKRLHCYASWRNSSGTIELVKKGCWLDDFNCYDRQECVATEENPQVYFCCCEGNFCNERFTHLPEAGGPEVTYEPPPTA
Q: How did the IC50 (ng/mL), Activin, reporter assay, conditioned media (Activin A [3]) turn out when B3 was run?
A: 32 ng/mL

Q: What about the IC50 (ng/mL), GDF-11, reporter assay, conditioned media (GDF11 [4]) of the same binder?
A: 87 ng/mL

B4: ActRIIB(20-131)-hFc (Fc fusion, not shown: a dimerising Fc or GST)
chain: GRGEAETRECIYYNANWELERTNQSGLERCEGEQDKRLHCYASWRNSSGTIELVKKGCWLDDFNCYDRQECVATEENPQVYFCCCEGNFCNERFTHLPEAGGPEVTYEPPPT
Q: With B4 as the binder, how does the IC50 (ng/mL), Activin, reporter assay, conditioned media (Activin A [3]) read?
A: 44 ng/mL

Q: What about the IC50 (ng/mL), GDF-11, reporter assay, conditioned media (GDF11 [4]) of the same binder?
A: 120 ng/mL

Q: What about the IC50 (ng/mL), Activin, reporter assay, conditioned media (Activin A [1]) of the same binder?
A: 201 ng/mL

Q: And the IC50 (ng/mL), GDF-11, reporter assay, conditioned media (GDF11 [2])?
A: 183 ng/mL

B5: ActRIIB(23-131)-hFc (Fc fusion, not shown: a dimerising Fc or GST)
chain: EAETRECIYYNANWELERTNQSGLERCEGEQDKRLHCYASWRNSSGTIELVKKGCWLDDFNCYDRQECVATEENPQVYFCCCEGNFCNERFTHLPEAGGPEVTYEPPPT
Q: For B5, which IC50 (ng/mL), Activin, reporter assay, conditioned media (Activin A [1]) is on record?
A: 43 ng/mL

Q: And the IC50 (ng/mL), GDF-11, reporter assay, conditioned media (GDF11 [2])?
A: 60 ng/mL

B6: Soluble ActRIIB-Fc +15tail (Fc fusion, not shown: a dimerising Fc or GST)
chain: SGRGEAETRECIYYNANWELERTNQSGLERCEGEQDKRLHCYASWANSSGTIELVKKGCWLDDFNCYDRQECVATEENPQVYFCCCEGNFCNERFTHLPEAGGPEVTYEPPPTAPT
Q: How did the Kd (GDF11 [5]) turn out when B6 was run?
A: 19 nM

B7: ActRIIB(22-131)-hFc (Fc fusion, not shown: a dimerising Fc or GST)
chain: GEAETRECIYYNANWELERTNQSGLERCEGEQDKRLHCYASWRNSSGTIELVKKGCWLDDFNCYDRQECVATEENPQVYFCCCEGNFCNERFTHLPEAGGPEVTYEPPPT
Q: B7 was tested. Which IC50 (ng/mL), Activin, reporter assay, conditioned media (Activin A [1]) did it give?
A: 100 ng/mL

Q: What about the IC50 (ng/mL), GDF-11, reporter assay, conditioned media (GDF11 [2]) of the same binder?
A: 71 ng/mL

B8: ActRIIB(20-128)-hFc (Fc fusion, not shown: a dimerising Fc or GST)
chain: GRGEAETRECIYYNANWELERTNQSGLERCEGEQDKRLHCYASWRNSSGTIELVKKGCWLDDFNCYDRQECVATEENPQVYFCCCEGNFCNERFTHLPEAGGPEVTYEP
Q: B8 was tested. Which IC50 (ng/mL), Activin, reporter assay, conditioned media (Activin A [3]) did it give?
A: 158 ng/mL

Q: And the IC50 (ng/mL), GDF-11, reporter assay, conditioned media (GDF11 [4])?
A: 130 ng/mL

B9: ActRIIB(21-131)-hFc (Fc fusion, not shown: a dimerising Fc or GST)
chain: RGEAETRECIYYNANWELERTNQSGLERCEGEQDKRLHCYASWRNSSGTIELVKKGCWLDDFNCYDRQECVATEENPQVYFCCCEGNFCNERFTHLPEAGGPEVTYEPPPT
Q: For B9, which IC50 (ng/mL), Activin, reporter assay, conditioned media (Activin A [1]) is on record?
A: 325 ng/mL

Q: And the IC50 (ng/mL), GDF-11, reporter assay, conditioned media (GDF11 [2])?
A: 121 ng/mL
